Data on eight molecules can be found in patent US20250382355A1 (Merck Sharp & Dohme, published 2025).

Changes are numbered by the printed parent chain. Bounds are passed on as bounds.

The target in assay [1] is T1, SARS-CoV-2 prefusion-stabilized spike protein (SARS-CoV-2-PreS) (SARS-CoV-2, UniProt P0DTC2 14-1208). Briefly: Biacore, apparent affinity.
The target in assay [2] is T2, Biotinylated CoV2 Spike ECD PreS-AVI protein (SARS-CoV-2, UniProt P0DTC2 14-1208). Briefly: Octet binning; competitor 8E9.
Assay [3] addresses T1, SARS-CoV-2 prefusion-stabilized spike …. Nature of the assay: ELISA. On the technique in general: In an ELISA, binding on a coated surface is turned into a signal by an enzyme label.
The target of assay [4] is T2, Biotinylated CoV2 Spike ECD PreS-AVI …. Briefly: Octet binning; competitor 11F8. Background: BLI is a label-free optical method that tracks binding on a fibre tip over time.
Assay [5] shares this target. Nature of the assay: Octet binning; competitor Std-D.
For assay [6] the target is unchanged. Briefly: Octet binning; competitor Std-A.
Assay [7] shares this target. Nature of the assay: Octet binning; competitor 1A11.
The target is the same in assay [8]. Nature of the assay: Octet binning; competitor 7A9.
Assay [9] has the same target. Briefly: Octet binning; competitor 13C8.
The target is the same in assay [10]. Nature of the assay: Octet binning; competitor Std-B.
The target is the same in assay [11]. Briefly: Octet binning; competitor 9B2.
Assay [12] shares this target. Nature of the assay: Octet binning; competitor 15H7.
Assay [13] addresses SARS-CoV-2 Omicron spike on pseudovirus (SARS-CoV-2). Briefly: cell-based or functional assay.
Assay [14] concerns the target T2, Biotinylated CoV2 Spike ECD PreS-AVI …. Nature of the assay: Octet binning; competitor 15H1.
The target of assay [15] is SARS-CoV-2 Alpha B.1.1.7 spike on pseudovirus (SARS-CoV-2). Briefly: cell-based or functional assay.
In assay [16] the target is SARS-CoV-2 Gamma P.1 spike on pseudovirus (SARS-CoV-2). Briefly: cell-based or functional assay.
The target in assay [17] is SARS-CoV-2 Beta B.1.351 spike on pseudovirus (SARS-CoV-2). Briefly: cell-based or functional assay.

B1: 5D7 VHH-Fc (Fc fusion)
chain: QVQLVESGGGLVQAGGSLRLSCAASGRTGSRYIMGWFRQAPGKEREFVAAINWRGDSTYYADSVKGRFTIARDNAKNTAYLQMNSLKPEDTAVYYCVADRGESYYYTRSTEYTYWGQGTQVTVSS
As for B1, the Kd in assay [1] is less than 200 pM. In addition, the binning response in [2] stood at 0.1; in assay [4], 0.12; in [5], 0.12; in assay [6] it was 0.28; in assay [7], 0.12; in assay [8], 0.31. Also, the binning response was determined as 0.15 in assay [9]; 0.25 in [10]; 0.12 in assay [11]; 0.15 in [12]; 0.16 in assay [14]. In addition, the concentration for a half-maximal effect (EC50) in assay [3] turned out to be 110 pM. Moreover, the “pseudovirus neutralization IC50” value in [13] was 221000 pM.

B2: 15H1 VHH-Fc (Fc fusion)
chain: QVQLVESGGGLAQAGGSLRLSCASSGLIFSGSAMGWFRQAPGKEREFVGVISWNGRTTYADSVKGRFTISRDDAVNMVWLQMNNLKPEDTAVYYCAADHLNYGSGDVNPRTYDYWGQGTQVTVSS
Turning to B2, the Kd in [1] is less than 200 pM. The binning response in [2] stood at 0.08; in assay [4] it was 0.09; in assay [5], 0.05; in assay [6], 0.35; in [7] it was 0.08; in assay [8], 0.35. The binning response in assay [9] was determined as 0.1; in assay [10], 0.3; in assay [11], 0.08; in [12], 0.11; in assay [14], 0.11. This molecule came in with a 50% effective concentration (EC50) in [3] of 140 pM.

B3: 15H7 VHH-Fc (Fc fusion)
chain: QVQLVESGGRLVQAGGSLRLSCAAPGRTFRNLTLGWFRQAPGKEREFVASTSWPDDEMTYYTDSVKGRFTISRDNAKNTVYLQMNSLKPEDTAVYYCAAASWSGRSTLSYDYDYWGQGTQVTVST
Turning to B3, the Kd in assay [1] was less than 200 pM. For the same molecule, the binning response in assay [2] is 0.06; in assay [4] it was 0.11; in assay [5] it was 0.08; in assay [6], 0.36; in [7], 0.09; in assay [8], 0.37. Moreover, the binning response in assay [9] is 0.08; in assay [10] it was 0.32; in assay [11], 0.08; in assay [12], 0.1; in assay [14] it was 0.09. The molecule also had an EC50 in [3] of 50 pM.

B4: 8E9 VHH-Fc (Fc fusion)
chain: QVQLVESGGGLVEAGGSLRLSCVASGSSSSINAMGWYRQAPGKQRELVASISHDGETKYANSVKGRFTISRGNAKNTIYLQMNSLKPEDTAVYYCVGDVAWVVVAGEYDYWGQGTQVTVSS
As to B4, the Kd in assay [1] is less than 200 pM. In addition, the binning response in [2] turned out to be 0.08; in assay [4], 0.11; in assay [5], 0.04; in assay [6], 0.36; in assay [7], 0.09; in [8], 0.39. Further, the binning response in assay [9] was 0.11; in [10], 0.34; in assay [11], 0.11; in [12] it was 0.11; in assay [14], 0.13. The molecule also had an EC50 in assay [3] of 80 pM. Further, in assay [13], the “pseudovirus neutralization IC50” value stood at 429000 pM.

B5: 1E4 VHH-Fc (Fc fusion)
chain: QVLLVESGGGLVQAGGLLRLACSASGRTFTENVMGWFRQAPGKEREFVAAINWNTGSTYYSDSRKGRFTISKDNAKNTMFLQINNLKPEDTAVYYCGGTSSSYYYIGEFIPDYWGQGTQVTVSS
Take B5: the Kd in assay [1] was less than 200 pM. Also, the binning response was 0.09 in assay [2]; 0.11 in [4]; 0.08 in [5]; 0.28 in [6]; 0.09 in assay [7]; 0.26 in [8]. Further, the binning response in [9] worked out at 0.12; in assay [10], 0.24; in assay [11], 0.11; in [12], 0.11; in [14], 0.11. In assay [3], this molecule came in with an EC50 of 40 pM. Besides, the figures for the “pseudovirus neutralization IC50” value in assay [15], in [16] and in assay [17] were 2200 pM, 2600 pM and 580 pM, respectively.

B6: 7A9 VHH-Fc (Fc fusion)
chain: QVQLVESGGGLVQAGGSLRLSCSASGGTASRSAMGWFRQAPGKEREFVAGISRRNSGSTYVADSYEDSVKGRFTISRDNAKNTIYLQMNSLKPEDTAVYYCAAEPTLGWYVPRRSVEYEYWGQGTQVTVSS
Consider B6, for which the Kd in assay [1] was less than 200 pM. Besides, the binning response in assay [2] stood at 0.37; in [4] it was 0.32; in assay [5], 0.46; in [6] it was 0.34; in assay [7], 0.32; in assay [8], 0.06. Further, the binning response in [9] is 0.52; in assay [10] it was 0.3; in assay [11], 0.38; in assay [12], 0.34; in assay [14] it was 0.37. In [3], this molecule showed an EC50 of 160 pM. Further, the “pseudovirus neutralization IC50” value in assay [13] was 44000 pM.

B7: 3D4 VHH-Fc (Fc fusion)
chain: QVQLVESGGGLVQPGGSLRLSCAASGFTLDLNSIGWFRQAPGKEREGVSCISPSGSRMHYADSVKGRFTISRDNAKNTVYLQMNSLKPEDTAVYYCATGSPSYHYCSMYGLEYDSWGQGTQVTVPS
Take B7: the Kd in assay [1] is less than 200 pM. Moreover, the binning response in [2] was 0.08; in assay [4], 0.09; in assay [5] it was 0.04; in assay [6], 0.34; in assay [7], 0.08; in [8], 0.32. Further, the binning response in assay [9] amounted to 0.1; in [10], 0.31; in assay [11] it was 0.09; in assay [12], 0.09; in [14], 0.1. The EC50 in assay [3] worked out at 130 pM. Further, the “pseudovirus neutralization IC50” value in [15] stood at 1500 pM; in assay [16], 590 pM; in [17], 1100 pM.

B8: 19C10 VHH-Fc (Fc fusion)
chain: B7 chain with G55A, R57S, M58T, S100T, S115D, P125S
In the case of B8, the Kd in [1] was less than 200 pM. Moreover, the binning response in assay [2] was found to be 0.1; in assay [4], 0.12; in assay [5], 0.04; in assay [6], 0.35; in assay [7] it was 0.08; in assay [8], 0.36. Besides, the binning response came to 0.1 in [9]; 0.35 in [10]; 0.11 in assay [11]; 0.1 in assay [12]; 0.1 in assay [14]. Further, it took 60 pM to reach a half-maximal effect in assay [3] (EC50). Moreover, the “pseudovirus neutralization IC50” value in [15] turned out to be 850 pM; in assay [16], 800 pM; in assay [17], 660 pM.

For orientation: EC50 means the concentration that produces a half-maximal response. High values mean a need for much substance, low ones an effect from little substance.
